Measured values: publication PMC10526015
Blank lines part the entries; values can stand above or below the substance they belong to.

Key:
[1] = target: FcγR on THP-1 cells (FcγRI and FcγRII); assay: flow cytometry on cells; THP-1 cells, 100 nM uncomplexed IgG, 30 min on ice, PBSF; goat anti-human IgG R-PE; median fluorescence intensity
[2] = target: FcγR on THP-1 cells (FcγRI and FcγRII); assay: as above; remark: listed apart in the source
[3] = target: FcγR on THP-1 cells (FcγRI and FcγRII); assay: flow cytometry on cells; THP-1 cells; ~100 nM IgG pre-complexed with 10 nM CD3ε-BSA (CD3ε peptide 21–47 on BSA) 20 min RT, highly avid; 30 min on ice; goat anti-human IgG PE; median fluorescence intensity
[4] = target: ADI-26906 IgG1 LALE-A330S (L234A/L235E/A330S) (human); assay: SPR; Biacore 8K or 8K+, 25 °C, HBS-EP+ pH 7.4; IgG captured (400–425 RU) by goat anti-human Fc on CM5; human FcγRI 100 nM injected; response units at one concentration
[5] = target: ADI-26906 IgG1 LALA-A327G (L234A/L235A/A327G) (human); assay: as above
[6] = target: ADI-26906 IgG1 LALE-H268Q (L234A/L235E/H268Q) (human); assay: as above
[7] = target: ADI-26906 IgG1 LALA-Y296F (L234A/L235A/Y296F) (human); assay: as above
[8] = target: ADI-26906 IgG1 LALA-L309A (L234A/L235A/L309A) (human); assay: as above
[9] = target: ADI-26906 IgG1 LALA-K322A (L234A/L235A/K322A) (human); assay: as above
[10] = target: ADI-26906 IgG1 LALE-A330S/P331S (L234A/L235E/A330S/P331S) (human); assay: as above
[11] = target: ADI-26906 IgG1 L234A/L235A (human); assay: as above
[12] = target: ADI-26906 IgG1 LALA-P331S (L234A/L235A/P331S) (human); assay: as above
[13] = target: ADI-26906 IgG1 LALA-L309V (L234A/L235A/L309V) (human); assay: as above
[14] = target: ADI-26906 IgG1 LALA-L328A (L234A/L235A/L328A) (human); assay: as above
[15] = target: ADI-26906 IgG1 LALA-A330S/P331S (L234A/L235A/A330S/P331S) (human); assay: as above
[16] = target: ADI-26906 IgG1 LALE-K322A (L234A/L235E/K322A) (human); assay: as above
[17] = target: ADI-26906 IgG1 LALA-H268Q (L234A/L235A/H268Q) (human); assay: as above
[18] = target: ADI-26906 IgG1 LALE-L309V (L234A/L235E/L309V) (human); assay: as above
[19] = target: ADI-26906 IgG1 LALA-A330S (L234A/L235A/A330S) (human); assay: as above
[20] = target: ADI-26906 IgG1 LALE-L309A (L234A/L235E/L309A) (human); assay: as above
[21] = target: ADI-26906 IgG1 LALE-L328A (L234A/L235E/L328A) (human); assay: as above
[22] = target: ADI-26906 IgG1 LALA-D270A (L234A/L235A/D270A) (human); assay: as above
[23] = target: ADI-26906 IgG1 L234A/L235E (human); assay: as above
[24] = target: ADI-26906 IgG1 LALE-D270A (L234A/L235E/D270A) (human); assay: as above
[25] = target: ADI-26906 IgG1 LALE-P331S (L234A/L235E/P331S) (human); assay: as above
[26] = target: ADI-26906 IgG1 LALA-D265A (L234A/L235A/D265A) (human); assay: bead-based flow cytometry (Dynal bead assay); biotinylated CD3ε peptide on streptavidin Dyna Beads, saturated with antibody; beads incubated with C1q alone or with C1q and human complement C3, 25 min RT, PBSF; anti-C1q APC and anti-C3 PE
[27] = target: ADI-26906 IgG1 LALE-D265A (L234A/L235E/D265A) (human); assay: as above
Sequence of ADI-26906 IgG1 LALE-D265A (L234A/L235E/D265A) (human) (heavy, as listed by the source, chain 1 of 2): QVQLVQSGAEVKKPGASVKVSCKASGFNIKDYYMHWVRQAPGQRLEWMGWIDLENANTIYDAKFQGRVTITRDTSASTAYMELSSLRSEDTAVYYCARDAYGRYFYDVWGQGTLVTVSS
Sequence of ADI-26906 IgG1 LALE-D265A (L234A/L235E/D265A) (human) (light, as listed by the source, chain 2 of 2): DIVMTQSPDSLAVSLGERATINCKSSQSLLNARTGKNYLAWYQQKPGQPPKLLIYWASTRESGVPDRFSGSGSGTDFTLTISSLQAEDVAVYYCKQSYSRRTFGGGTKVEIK

Sequence of ADI-26906 IgG1 LALA-D270A (L234A/L235A/D270A) (human) (heavy, as listed by the source, chain 1 of 2): as the sequence (heavy, as listed by the source, chain 1 of 2) above
Sequence of ADI-26906 IgG1 LALA-D270A (L234A/L235A/D270A) (human) (light, as listed by the source, chain 2 of 2): as the sequence (light, as listed by the source, chain 2 of 2) above
Sequence of ADI-26906 IgG1 LALE-A330S (L234A/L235E/A330S) (human) (heavy, as listed by the source, chain 1 of 2): as the sequence (heavy, as listed by the source, chain 1 of 2) above
Sequence of ADI-26906 IgG1 LALE-A330S (L234A/L235E/A330S) (human) (light, as listed by the source, chain 2 of 2): as the sequence (light, as listed by the source, chain 2 of 2) above
Sequence of ADI-26906 IgG1 LALA-L309V (L234A/L235A/L309V) (human) (heavy, as listed by the source, chain 1 of 2): as the sequence (heavy, as listed by the source, chain 1 of 2) above
Sequence of ADI-26906 IgG1 LALA-L309V (L234A/L235A/L309V) (human) (light, as listed by the source, chain 2 of 2): as the sequence (light, as listed by the source, chain 2 of 2) above
Sequence of ADI-26906 IgG1 LALE-A330S/P331S (L234A/L235E/A330S/P331S) (human) (heavy, as listed by the source, chain 1 of 2): as the sequence (heavy, as listed by the source, chain 1 of 2) above
Sequence of ADI-26906 IgG1 LALE-A330S/P331S (L234A/L235E/A330S/P331S) (human) (light, as listed by the source, chain 2 of 2): as the sequence (light, as listed by the source, chain 2 of 2) above
Sequence of ADI-26906 IgG1 LALA-L309A (L234A/L235A/L309A) (human) (heavy, as listed by the source, chain 1 of 2): as the sequence (heavy, as listed by the source, chain 1 of 2) above
Sequence of ADI-26906 IgG1 LALA-L309A (L234A/L235A/L309A) (human) (light, as listed by the source, chain 2 of 2): as the sequence (light, as listed by the source, chain 2 of 2) above
Sequence of ADI-26906 IgG1 LALE-P331S (L234A/L235E/P331S) (human) (heavy, as listed by the source, chain 1 of 2): as the sequence (heavy, as listed by the source, chain 1 of 2) above
Sequence of ADI-26906 IgG1 LALE-P331S (L234A/L235E/P331S) (human) (light, as listed by the source, chain 2 of 2): as the sequence (light, as listed by the source, chain 2 of 2) above
Sequence of ADI-26906 IgG1 LALE-D270A (L234A/L235E/D270A) (human) (heavy, as listed by the source, chain 1 of 2): as the sequence (heavy, as listed by the source, chain 1 of 2) above
Sequence of ADI-26906 IgG1 LALE-D270A (L234A/L235E/D270A) (human) (light, as listed by the source, chain 2 of 2): as the sequence (light, as listed by the source, chain 2 of 2) above
Sequence of ADI-26906 IgG1 LALE-K322A (L234A/L235E/K322A) (human) (heavy, as listed by the source, chain 1 of 2): as the sequence (heavy, as listed by the source, chain 1 of 2) above
Sequence of ADI-26906 IgG1 LALE-K322A (L234A/L235E/K322A) (human) (light, as listed by the source, chain 2 of 2): as the sequence (light, as listed by the source, chain 2 of 2) above
Sequence of ADI-26906 IgG1 LALA-L328A (L234A/L235A/L328A) (human) (heavy, as listed by the source, chain 1 of 2): as the sequence (heavy, as listed by the source, chain 1 of 2) above
Sequence of ADI-26906 IgG1 LALA-L328A (L234A/L235A/L328A) (human) (light, as listed by the source, chain 2 of 2): as the sequence (light, as listed by the source, chain 2 of 2) above
Sequence of ADI-26906 IgG1 LALA-P331S (L234A/L235A/P331S) (human) (heavy, as listed by the source, chain 1 of 2): as the sequence (heavy, as listed by the source, chain 1 of 2) above
Sequence of ADI-26906 IgG1 LALA-P331S (L234A/L235A/P331S) (human) (light, as listed by the source, chain 2 of 2): as the sequence (light, as listed by the source, chain 2 of 2) above
Sequence of ADI-26906 IgG1 LALA-A330S/P331S (L234A/L235A/A330S/P331S) (human) (heavy, as listed by the source, chain 1 of 2): as the sequence (heavy, as listed by the source, chain 1 of 2) above
Sequence of ADI-26906 IgG1 LALA-A330S/P331S (L234A/L235A/A330S/P331S) (human) (light, as listed by the source, chain 2 of 2): as the sequence (light, as listed by the source, chain 2 of 2) above
Sequence of ADI-26906 IgG1 LALA-Y296F (L234A/L235A/Y296F) (human) (heavy, as listed by the source, chain 1 of 2): as the sequence (heavy, as listed by the source, chain 1 of 2) above
Sequence of ADI-26906 IgG1 LALA-Y296F (L234A/L235A/Y296F) (human) (light, as listed by the source, chain 2 of 2): as the sequence (light, as listed by the source, chain 2 of 2) above
Sequence of ADI-26906 IgG1 LALE-L309A (L234A/L235E/L309A) (human) (heavy, as listed by the source, chain 1 of 2): as the sequence (heavy, as listed by the source, chain 1 of 2) above
Sequence of ADI-26906 IgG1 LALE-L309A (L234A/L235E/L309A) (human) (light, as listed by the source, chain 2 of 2): as the sequence (light, as listed by the source, chain 2 of 2) above
Sequence of ADI-26906 IgG1 LALA-H268Q (L234A/L235A/H268Q) (human) (heavy, as listed by the source, chain 1 of 2): as the sequence (heavy, as listed by the source, chain 1 of 2) above
Sequence of ADI-26906 IgG1 LALA-H268Q (L234A/L235A/H268Q) (human) (light, as listed by the source, chain 2 of 2): as the sequence (light, as listed by the source, chain 2 of 2) above
Sequence of ADI-26906 IgG1 LALA-K322A (L234A/L235A/K322A) (human) (heavy, as listed by the source, chain 1 of 2): as the sequence (heavy, as listed by the source, chain 1 of 2) above
Sequence of ADI-26906 IgG1 LALA-K322A (L234A/L235A/K322A) (human) (light, as listed by the source, chain 2 of 2): as the sequence (light, as listed by the source, chain 2 of 2) above
Sequence of ADI-26906 IgG1 LALE-H268Q (L234A/L235E/H268Q) (human) (heavy, as listed by the source, chain 1 of 2): as the sequence (heavy, as listed by the source, chain 1 of 2) above
Sequence of ADI-26906 IgG1 LALE-H268Q (L234A/L235E/H268Q) (human) (light, as listed by the source, chain 2 of 2): as the sequence (light, as listed by the source, chain 2 of 2) above
Sequence of ADI-26906 IgG1 LALA-D265A (L234A/L235A/D265A) (human) (heavy, as listed by the source, chain 1 of 2): as the sequence (heavy, as listed by the source, chain 1 of 2) above
Sequence of ADI-26906 IgG1 LALA-D265A (L234A/L235A/D265A) (human) (light, as listed by the source, chain 2 of 2): as the sequence (light, as listed by the source, chain 2 of 2) above

Substance: ADI-26906 IgG1 L234A/L235A/G237A (antibody)
- MFI [1]: 150 MFI

Substance: ADI-26906 IgG1 L234A/L235E (antibody)
- MFI [1]: 192 MFI
- MFI [2]: 127 MFI
- MFI [3]: 5300 MFI

Substance: ADI-26906 IgG1 LALA-A327G (L234A/L235A/A327G) (antibody)
- MFI [3]: 7010 MFI

Substance: ADI-26906 IgG1 LALA-A330S (L234A/L235A/A330S) (antibody)
- MFI [3]: 4440 MFI

Substance: ADI-26906 IgG1 LALA-A330S/P331S (L234A/L235A/A330S/P331S) (antibody)
- MFI [3]: 3840 MFI

Substance: ADI-26906 IgG1 LALA-D270A (L234A/L235A/D270A) (antibody)
- MFI [3]: 2270 MFI

Substance: ADI-26906 IgG1 LALA-H268Q (L234A/L235A/H268Q) (antibody)
- MFI [3]: 4800 MFI

Substance: ADI-26906 IgG1 LALA-K322A (L234A/L235A/K322A) (antibody)
- MFI [3]: 4390 MFI

Substance: ADI-26906 IgG1 LALE-A330S/P331S (L234A/L235E/A330S/P331S) (antibody)
- MFI [3]: 1390 MFI

Substance: ADI-26906 IgG1 LALE-D270A (L234A/L235E/D270A) (antibody)
- MFI [3]: 546 MFI

Substance: ADI-26906 IgG1 LALE-H268Q (L234A/L235E/H268Q) (antibody)
- MFI [3]: 4000 MFI

Substance: ADI-26906 IgG1 LALE-L309A (L234A/L235E/L309A) (antibody)
- MFI [3]: 2760 MFI

Substance: ADI-26906 IgG1 LALE-L328A (L234A/L235E/L328A) (antibody)
- MFI [3]: 7040 MFI

The remaining lines, values ahead:

- MFI [1]: 184 MFI
Substance: ADI-26906 IgG1 L234A/G237A (antibody)

- MFI [1]: 491 MFI
- MFI [2]: 270 MFI
- MFI [3]: 5270 MFI
Substance: ADI-26906 IgG1 L234A/L235A (antibody)

- MFI [1]: 140 MFI
Substance: ADI-26906 IgG1 L234A/L235K (antibody)

- MFI [1]: 176 MFI
Substance: ADI-26906 IgG1 L234E/L235K (antibody)

- MFI [1]: 369 MFI
Substance: ADI-26906 IgG1 L234F/L235E (antibody)

- MFI [1]: 386 MFI
Substance: ADI-26906 IgG1 L234F/L235K (antibody)

- MFI [1]: 192 MFI
Substance: ADI-26906 IgG1 L235A/G237A (antibody)

- MFI [3]: 4790 MFI
Substance: ADI-26906 IgG1 LALA-L309A (L234A/L235A/L309A) (antibody)

- MFI [3]: 4850 MFI
Substance: ADI-26906 IgG1 LALA-L309V (L234A/L235A/L309V) (antibody)

- MFI [3]: 6420 MFI
Substance: ADI-26906 IgG1 LALA-L328A (L234A/L235A/L328A) (antibody)

- MFI [3]: 4220 MFI
Substance: ADI-26906 IgG1 LALA-P331S (L234A/L235A/P331S) (antibody)

- MFI [3]: 3810 MFI
Substance: ADI-26906 IgG1 LALA-Y296F (L234A/L235A/Y296F) (antibody)

- MFI [3]: 2260 MFI
Substance: ADI-26906 IgG1 LALE-A330S (L234A/L235E/A330S) (antibody)

- MFI [3]: 2320 MFI
Substance: ADI-26906 IgG1 LALE-K322A (L234A/L235E/K322A) (antibody)

- MFI [3]: 3540 MFI
Substance: ADI-26906 IgG1 LALE-L309V (L234A/L235E/L309V) (antibody)

- MFI [3]: 1760 MFI
Substance: ADI-26906 IgG1 LALE-P331S (L234A/L235E/P331S) (antibody)

- response (RU) [4]: 3.3 RU
- response (RU) [5]: 14.3 RU
- response (RU) [6]: 4.3 RU
- response (RU) [7]: 19.1 RU
- response (RU) [8]: 21.6 RU
- response (RU) [9]: 19.9 RU
- response (RU) [10]: 2.6 RU
- response (RU) [11]: 23.5 RU
- response (RU) [12]: 17.7 RU
- response (RU) [13]: 25.2 RU
- response (RU) [14]: 13.6 RU
- response (RU) [15]: 15.8 RU
- response (RU) [16]: 4.6 RU
- response (RU) [17]: 22.9 RU
- response (RU) [18]: 4.9 RU
- response (RU) [19]: 19.9 RU
- response (RU) [20]: 4.2 RU
- response (RU) [21]: 3.5 RU
- response (RU) [22]: 9.7 RU
- response (RU) [23]: 3.8 RU
- response (RU) [24]: 1.8 RU
- response (RU) [25]: 3.3 RU
Substance: human FcγRI (CD64) (from UniProt P12314 16-374) (receptor)

- C1q Dynal FACS MFI [26]: 1950 MFI
- C1q Dynal FACS MFI [27]: 2280 MFI
Substance: human complement C1q (complex)
